Residue numbers refer to the chain shown, from its start. Read-outs that look alike come from different tables or passages of the source.
B1: 3.40.19-uAb-IgG4L (antibody, V domains shown)
VH: QLQLQESGPGLVKPSETLSLTCTVSGDSISSTSYYWGWIRQPPGKGLEWIGSFYYSGSTYYNPSLKSRVTISVDTSKNQFSLKLNSVTAADTAVYYCARMQLWSYDVDVWGQGTTVTVSS
VL: QSALTQPASVSGSPGQSITISCTGTSSDVGGYDYVAWYQQHPGKVPKLMIYDVSERPSGVSNRFSGSKSGNTASLTISGLQAEDEADYYCSSYTSTTTLVVFGGGTKLSVL
B2: BMK7 (antibody, INN chains, looked up, V domains shown)
VH: QVQLVESGGGVVQPGRSLRLSCVASGFTFSSYGMHWVRQAPGKGLEWVAIIWYDGSNKYYADSVKGRFTISRDNSKNTQYLQMNSLRAEDTAVYYCASVATSGDFDYYGMDVWGQGTTVTVSS
VL: EIVLTQSPATLSLSPGERTTLSCRASQRISTYLAWYQQKPGQAPRLLIYDASKRATGIPARFSGSGSGTGFTLTISSLEPEDFAVYYCQQRSNWPLTFGGGTKVEIK
B3: 1.53.3-uAb-IgG4k (antibody, V domains shown)
VH: QVQLQQWGAGLLKPSETLSLTCGVYGGSFSGYYWSWIRQPPGMGLEWIGEINHRGNTNYNPSLKSRVTISEDTSKNQFSLRLSSVTAADTAVYFCTRGEDYSDYDYYGDFWGQGTLVTVSS
VL: B2 VL with P15Q, T19A, R28S, T31S, D50A, K53N, G70D, V85I

Tests used:
[1] = molecular target: full-length cynomolgus LAG-3 on cells (cynomolgus); assay: FACS on cynomolgus LAG-3-expressing 293F cells (target not labelled in the table)
Target sequence in this assay (P18627 other isoform, or with tags, fused parts or gaps limits assumed, form in doubt): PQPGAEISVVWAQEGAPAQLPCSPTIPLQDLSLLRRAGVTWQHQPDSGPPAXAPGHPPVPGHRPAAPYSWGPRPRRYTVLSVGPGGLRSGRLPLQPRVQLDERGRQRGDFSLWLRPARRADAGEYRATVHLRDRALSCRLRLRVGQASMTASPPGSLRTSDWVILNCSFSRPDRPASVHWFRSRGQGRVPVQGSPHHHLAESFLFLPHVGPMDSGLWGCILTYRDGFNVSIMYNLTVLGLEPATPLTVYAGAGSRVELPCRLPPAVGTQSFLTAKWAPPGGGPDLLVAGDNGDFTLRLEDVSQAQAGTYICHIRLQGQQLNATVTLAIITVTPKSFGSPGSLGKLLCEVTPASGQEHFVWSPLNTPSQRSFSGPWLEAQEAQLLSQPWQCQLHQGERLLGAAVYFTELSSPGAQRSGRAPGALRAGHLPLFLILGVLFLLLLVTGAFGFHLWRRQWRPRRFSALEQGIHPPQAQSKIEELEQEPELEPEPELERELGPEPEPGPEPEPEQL

[2] = molecular target: mFc-tagged LAG-3 protein (human) (UniProt P18627); assay: ELISA competition: blocks mFc-tagged LAG-3 binding to coated Galectin-3
Chain of mFc-tagged LAG-3 protein (human) (P18627 30-450): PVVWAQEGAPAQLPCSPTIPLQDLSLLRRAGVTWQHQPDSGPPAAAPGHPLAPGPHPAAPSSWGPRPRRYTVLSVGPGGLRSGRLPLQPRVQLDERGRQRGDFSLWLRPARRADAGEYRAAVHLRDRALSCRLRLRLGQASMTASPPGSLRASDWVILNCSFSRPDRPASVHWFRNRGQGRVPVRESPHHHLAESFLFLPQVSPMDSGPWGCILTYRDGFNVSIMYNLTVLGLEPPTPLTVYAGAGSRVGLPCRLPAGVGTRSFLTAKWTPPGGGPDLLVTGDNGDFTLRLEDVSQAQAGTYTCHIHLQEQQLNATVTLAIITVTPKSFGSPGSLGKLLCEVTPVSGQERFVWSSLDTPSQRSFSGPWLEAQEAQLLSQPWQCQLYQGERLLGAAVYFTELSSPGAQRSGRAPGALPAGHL

[3] = molecular target: full-length cynomolgus LAG-3 on cells (cynomolgus); assay: FACS on cynomolgus LAG-3-expressing 293F cells (target not labelled in the table); remark: listed apart in the source
Target sequence in this assay (P18627 other isoform, or with tags, fused parts or gaps limits assumed, form in doubt): as the sequence (P18627 other isoform, or with tags, fused parts or gaps limits assumed, form in doubt) above

[4] = molecular target: human LAG-3 protein (SPR analyte) (human) (UniProt P18627); assay: SPR Biacore 8K, antibody captured by anti-human Fc, LAG-3 as analyte
Chain of human LAG-3 protein (SPR analyte) (human) (P18627 30-450 limits assumed): as the sequence (P18627 30-450) above

[5] = molecular target: mFc-tagged LAG-3 protein (human) (UniProt P18627); assay: ELISA competition: blocks mFc-tagged LAG-3 binding to coated LSECtin
[6] = molecular target: mFc-tagged LAG-3 protein (human) (UniProt P18627); assay: FACS competition: blocks mFc-tagged LAG-3 binding to MHC-II on Raji cells
[7] = molecular target: full-length human LAG-3 on cells (human) (UniProt P18627); assay: FACS on human LAG-3 transfectant cells
Chain of full-length human LAG-3 on cells (human) (P18627 23-525 limits assumed): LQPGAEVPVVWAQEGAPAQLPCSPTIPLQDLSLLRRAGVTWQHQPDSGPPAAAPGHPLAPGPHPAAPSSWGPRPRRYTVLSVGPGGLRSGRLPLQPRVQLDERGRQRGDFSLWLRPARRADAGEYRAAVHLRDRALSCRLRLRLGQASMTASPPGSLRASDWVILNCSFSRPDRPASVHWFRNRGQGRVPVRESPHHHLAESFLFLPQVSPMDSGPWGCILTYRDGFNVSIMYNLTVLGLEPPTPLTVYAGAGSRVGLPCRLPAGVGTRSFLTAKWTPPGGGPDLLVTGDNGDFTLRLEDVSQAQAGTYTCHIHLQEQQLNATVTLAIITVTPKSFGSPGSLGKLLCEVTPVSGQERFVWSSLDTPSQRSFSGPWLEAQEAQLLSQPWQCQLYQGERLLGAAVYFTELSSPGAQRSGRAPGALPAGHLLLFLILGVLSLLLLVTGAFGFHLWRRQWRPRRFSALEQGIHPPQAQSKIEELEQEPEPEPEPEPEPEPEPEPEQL

[8] = molecular target: full-length human LAG-3 on cells (human) (UniProt P18627); assay: FACS affinity on Flp-In-293 cells expressing human LAG-3
[9] = molecular target: full-length human LAG-3 on cells (human) (UniProt P18627); assay: cell-based or functional assay

EC50 [1] [nM] | EC50 [2] [nM] | EC50 [3] [nM] | Kd [4] [nM] | koff [4] [s⁻¹] | kon [4] [M⁻¹ s⁻¹] | EC50 [5] [nM] | EC50 [6] [nM] | EC50 [7] [nM] | Kd [8] [nM] | EC50, IL-2 luciferase reporter gene assay (Jurkat cells expressing human LAG-3 with Raji cells and SEE) [9] [nM] | Binder
3.92 |  |  |  |  |  |  |  |  |  |  | B1
 | 0.79 | 2.65 | 0.497 | 0.000106 | 213000 | 0.59 | 1.25 | 0.61 | 0.58 | 2.65 | B2
4.01 |  |  |  |  |  |  |  |  |  |  | B3

Source: patent publication US20200407442A1
